Values quoted from earlier work in PMC12609503.

Legend:
[1] = molecular target: GnRH receptor (LN-CaP cells) (Homo sapiens) (UniProt P30968); assay: cell binding assay
[2] = molecular target: GnRH receptor (pituitary membrane) (Rattus norvegicus) (UniProt P30969); assay: radioligand saturation binding
Sequence of UniProt P30969 (P30969 whole entry): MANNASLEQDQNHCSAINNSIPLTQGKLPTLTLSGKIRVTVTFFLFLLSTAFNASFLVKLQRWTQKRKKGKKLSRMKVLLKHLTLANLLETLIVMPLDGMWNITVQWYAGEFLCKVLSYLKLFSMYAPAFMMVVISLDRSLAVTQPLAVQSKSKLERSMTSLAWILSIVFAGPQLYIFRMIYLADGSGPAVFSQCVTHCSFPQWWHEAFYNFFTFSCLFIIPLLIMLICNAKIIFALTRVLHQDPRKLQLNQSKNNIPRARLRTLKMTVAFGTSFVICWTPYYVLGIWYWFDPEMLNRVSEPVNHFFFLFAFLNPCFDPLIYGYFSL

Sequence of UniProt P30968 (P30968 whole entry): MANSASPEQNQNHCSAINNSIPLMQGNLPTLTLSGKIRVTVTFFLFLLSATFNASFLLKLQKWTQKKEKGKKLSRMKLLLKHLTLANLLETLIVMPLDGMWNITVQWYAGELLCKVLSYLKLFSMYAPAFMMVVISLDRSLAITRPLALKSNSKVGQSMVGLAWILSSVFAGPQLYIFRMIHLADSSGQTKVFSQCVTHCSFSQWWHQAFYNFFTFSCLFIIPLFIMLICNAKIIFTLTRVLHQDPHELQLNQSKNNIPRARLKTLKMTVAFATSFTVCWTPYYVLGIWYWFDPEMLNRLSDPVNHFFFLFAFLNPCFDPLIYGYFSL

| Substance | Kd [1] | Kd [2] |
| --- | --- | --- |
| 99mTc-HYNIC-Ahx-DLys6-GnRH (from UniProt P01148) | 42 nM | – |
| 99mTc-HYNIC-GABA-DLys6-GnRH (from UniProt P01148) | 89 nM | – |
| 125I-LHRH (from UniProt P01148) | – | 0.435 nM |
